In the test the target is FtsQ (Escherichia coli), P06136. In words: not stated; unpublished results (Luirink and den Blaauwen); method not given. As to conditions: remark: other sources report otherwise.
Chain of FtsQ (Escherichia coli), P06136 (P06136 whole entry): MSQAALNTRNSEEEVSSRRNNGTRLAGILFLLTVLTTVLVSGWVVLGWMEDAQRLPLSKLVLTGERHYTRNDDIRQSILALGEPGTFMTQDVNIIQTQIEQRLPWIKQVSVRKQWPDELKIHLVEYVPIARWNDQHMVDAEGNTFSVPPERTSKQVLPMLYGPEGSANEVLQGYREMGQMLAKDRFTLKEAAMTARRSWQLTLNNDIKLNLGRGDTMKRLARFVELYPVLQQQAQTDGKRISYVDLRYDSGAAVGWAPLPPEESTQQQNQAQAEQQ

B1: FtsL, P0AEN4 1-121 (natural protein)
chain: MISRVTEALSKVKGSMGSHERHALPGVIGDDLLRFGKLPLCLFICIILTAVTVVTTAHHTRLLTAQREQLVLERDALDIEWRNLILEENALGDHSRVERIATEKLQMQHVDPSQENIVVQK
Consider B1, for which the stoichiometry N turned out to be 1.

Usually stoichiometry N stands for a count of units in the complex or per binding partner.

Values taken from article PMC4462998.
